The experiment deals with APOBEC3G (human), Q9HC16. Put plainly: SEC. The settings on record: remark: other sources report otherwise.

Data on one molecule can be found in publication PMC5714209.

B1: APOBEC3G, Q9HC16 1-384 (enzyme)
chain: MKPHFRNTVERMYRDTFSYNFYNRPILSRRNTVWLCYEVKTKGPSRPPLDAKIFRGQVYSELKYHPEMRFFHWFSKWRKLHRDQEYEVTWYISWSPCTKCTRDMATFLAEDPKVTLTIFVARLYYFWDPDYQEALRSLCQKRDGPRATMKIMNYDEFQHCWSKFVYSQRELFEPWNNLPKYYILLHIMLGEILRHSMDPPTFTFNFNNEPWVRGRHETYLCYEVERMHNDTWVLLNQRRGFLCNQAPHKHGFLEGRHAELCFLDVIPFWKLDLDQDYRVTCFTSWSPCFSCAQEMAKFISKNKHVSLCIFTARIYDDQGRCQEGLRTLAEAGAKISIMTYSEFKHCWDTFVDHQGCPFQPWDGLDEHSQDLSGRLRAILQNQEN
The molecule B1 registered a stoichiometry N of 2.
